# Laboratory results as given in PMC3189723.
# Molecular target: ribosome nascent chain complex RNC_(1A9L) labeled with Cm on the nascent chain (1A9L 56 amb)
# Assay: FRET or BRET
substance,measurement,value
BODIPY-Fl labeled Signal Recognition Particle (SRP; protein component Ffh) (from UniProt P0AGD7 1-453) (complex),Kd,0.73 nM
